In the assay the target is T1, recombinant human p53, N-terminal His tag (human, UniProt P04637 1-393).
T1 construct: human p53, wild type, 393 aa per subunit as printed; plasmid pET15b-His-human p53; also called WT p53; source: E. coli, purified (nickel nitrilotriacetic acid-agarose chromatography)
The experiment in a line: co-IP; purified PEPD or a PEPD mutant at 100 nM incubated with p53 at 200 nM in PBS, 100 µl, 2 h, room temperature; then PEPD antibody (2 µg) in 300 µl PBS overnight at 4 °C, protein G-agarose, IB. Conditions: both partners purified.

T1 sequence (P04637 whole entry): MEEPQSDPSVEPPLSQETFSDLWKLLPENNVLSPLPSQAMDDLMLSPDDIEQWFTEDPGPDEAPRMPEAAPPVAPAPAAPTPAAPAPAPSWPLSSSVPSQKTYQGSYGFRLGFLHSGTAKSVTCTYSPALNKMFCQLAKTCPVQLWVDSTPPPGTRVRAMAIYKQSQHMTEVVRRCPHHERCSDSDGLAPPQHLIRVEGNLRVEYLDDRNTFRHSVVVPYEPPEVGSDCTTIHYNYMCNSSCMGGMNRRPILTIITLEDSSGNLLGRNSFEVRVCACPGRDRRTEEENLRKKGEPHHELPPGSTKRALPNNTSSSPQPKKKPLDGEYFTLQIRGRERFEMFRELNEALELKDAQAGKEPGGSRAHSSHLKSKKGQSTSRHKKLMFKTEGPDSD

B1: recombinant human PEPD^265-493aa, C-terminal His tag (domain or fragment, UniProt P12955 265-493, looked up)
chain: RTIQNGDMCLFDMGGEYYCFASDITCSFPANGKFTADQKAVYEAVLRSSRAVMGAMKPGVWWPDMHRLADRIHLEELAHMGILSGSVDAMVQAHLGAVFMPHGLGHFLGIDVHDVGGYPEGVERIDEPGLRSLRTARHLQPGMVLTVEPGIYFIDHLLDEALADPARASFLNREVLQRFRGFGGVRIEEDVVVTDSGIELLTCVPRTVEEIEACMAGCDKAFTPFSGPK
notes: also called C-terminal 229 aa; source: E. coli, purified (nickel nitrilotriacetic acid-agarose chromatography)
B1: the binding result is reported as “binds”.

The record behind these values is publication PMC5727116, “PEPD is a pivotal regulator of p53 tumor suppressor” (Nature Communications, 2017).
